Test results as given in patent US20200317768A1 (published 2020).

T1: cynomolgus monkey FcγRIIa2 extracellular domain with C-terminal His-tag (cynomolgus monkey)
T1 construct: also called cyno FcgRIIa2; cynoFcγRIIa2
T1 chain: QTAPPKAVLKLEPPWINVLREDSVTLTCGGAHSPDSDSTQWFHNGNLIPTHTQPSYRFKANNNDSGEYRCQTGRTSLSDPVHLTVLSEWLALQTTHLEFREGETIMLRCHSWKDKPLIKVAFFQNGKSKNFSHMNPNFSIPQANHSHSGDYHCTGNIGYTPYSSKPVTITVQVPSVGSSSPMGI

T2: cynomolgus monkey FcγRIIb extracellular domain with C-terminal His-tag (cynomolgus monkey)
T2 construct: also called cyno FcgRIIb; cynoFcγRIIb
T2 chain: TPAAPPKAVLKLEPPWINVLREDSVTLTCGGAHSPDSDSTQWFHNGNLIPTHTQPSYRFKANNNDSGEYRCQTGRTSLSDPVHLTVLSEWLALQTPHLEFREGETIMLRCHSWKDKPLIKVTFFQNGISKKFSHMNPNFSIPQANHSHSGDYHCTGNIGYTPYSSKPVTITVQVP

T3: cynomolgus monkey FcγRIIIaS extracellular domain with C-terminal His-tag (cynomolgus monkey, UniProt Q8SPW2 21-206 at identity 1.00))
T3 construct: also called cyno FcgRIIIaS; cynoFcγRIIIaS
T3 chain: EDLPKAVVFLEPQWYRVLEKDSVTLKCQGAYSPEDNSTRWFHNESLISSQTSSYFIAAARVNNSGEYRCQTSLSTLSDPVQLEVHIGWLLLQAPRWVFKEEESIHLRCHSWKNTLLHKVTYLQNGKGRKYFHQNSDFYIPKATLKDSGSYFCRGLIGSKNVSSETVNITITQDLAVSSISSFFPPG

T4: cynomolgus monkey FcγRIIa3 extracellular domain with C-terminal His-tag (cynomolgus monkey)
T4 construct: also called cyno FcgRIIa3; cynoFcγRIIa3
T4 chain: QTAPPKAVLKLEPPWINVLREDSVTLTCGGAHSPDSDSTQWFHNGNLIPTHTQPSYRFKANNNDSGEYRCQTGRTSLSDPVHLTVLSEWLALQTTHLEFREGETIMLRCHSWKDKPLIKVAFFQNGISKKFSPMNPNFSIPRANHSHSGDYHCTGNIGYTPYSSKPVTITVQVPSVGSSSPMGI

T5: cynomolgus monkey FcγRIIa1 extracellular domain with C-terminal His-tag (cynomolgus monkey)
T5 construct: also called cyno FcgRIIa1; cynoFcγRIIa1
T5 chain: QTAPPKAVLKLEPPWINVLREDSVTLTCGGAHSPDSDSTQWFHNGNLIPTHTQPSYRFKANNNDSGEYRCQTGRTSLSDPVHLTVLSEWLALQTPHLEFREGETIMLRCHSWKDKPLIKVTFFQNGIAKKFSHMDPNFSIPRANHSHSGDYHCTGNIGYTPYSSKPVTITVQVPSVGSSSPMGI

T6: human FcγRIIb extracellular domain with C-terminal His-tag (human, UniProt P31994 43-217)
T6 construct: also called human FcgRIIb
T6 sequence: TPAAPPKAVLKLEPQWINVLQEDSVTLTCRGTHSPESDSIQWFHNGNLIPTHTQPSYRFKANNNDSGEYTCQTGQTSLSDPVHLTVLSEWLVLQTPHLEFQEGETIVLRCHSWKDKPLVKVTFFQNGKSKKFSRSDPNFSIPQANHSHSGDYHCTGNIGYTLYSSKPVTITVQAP

T7: human FcγRIIaR extracellular domain with C-terminal His-tag (human, UniProt P12318 34-217)
T7 construct: also called human FcgRIIaR; FcγRIIa (type R)
T7 chain: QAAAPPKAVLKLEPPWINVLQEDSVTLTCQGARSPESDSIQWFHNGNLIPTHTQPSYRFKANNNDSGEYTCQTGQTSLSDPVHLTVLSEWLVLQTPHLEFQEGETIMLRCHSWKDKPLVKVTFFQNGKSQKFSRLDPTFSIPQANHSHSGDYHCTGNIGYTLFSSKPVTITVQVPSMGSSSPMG


Tests used:
[1] = molecular target: T1, cynomolgus monkey FcγRIIa2 …; assay: SPR (BIACORE); KD of SG1 / KD of variant;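 further: relative to parent M103205H795-SG1 carrying the SG1 human heavy chain constant region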
[2] = molecular target: T8, human FcγRIIIaV extracellular domain with C-terminal His-tag (human, UniProt P08637 17-208); assay: SPR (BIACORE); KD of SG1 / KD of variant;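 further: relative to parent M103205H795-SG1 carrying the SG1 human heavy chain constant region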
T8 construct: also called human FcgRIIIaV
T8 sequence (P08637 17-208 F176V): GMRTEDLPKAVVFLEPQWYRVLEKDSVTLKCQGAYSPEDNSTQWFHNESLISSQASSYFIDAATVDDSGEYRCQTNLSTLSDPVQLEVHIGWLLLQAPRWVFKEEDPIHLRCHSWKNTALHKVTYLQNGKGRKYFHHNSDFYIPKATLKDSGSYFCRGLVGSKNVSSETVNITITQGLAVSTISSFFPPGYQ

[3] = molecular target: T2, cynomolgus monkey FcγRIIb extracellular …; assay: SPR (BIACORE); KD of SG1 / KD of variant;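 further: relative to parent M103205H795-SG1 carrying the SG1 human heavy chain constant region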
[4] = molecular target: T3, cynomolgus monkey FcγRIIIaS …; assay: SPR (BIACORE); KD of SG1 / KD of variant;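 further: relative to parent M103205H795-SG1 carrying the SG1 human heavy chain constant region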
[5] = molecular target: T4, cynomolgus monkey FcγRIIa3 …; assay: SPR (BIACORE); KD of SG1 / KD of variant
[6] = molecular target: T5, cynomolgus monkey FcγRIIa1 …; assay: SPR (BIACORE); KD of SG1 / KD of variant
[7] = molecular target: T6, human FcγRIIb extracellular domain with …; assay: SPR (BIACORE); KD of SG1 / KD of variant
[8] = molecular target: T7, human FcγRIIaR extracellular domain …; assay: SPR (BIACORE); KD of SG1 / KD of variant
[9] = molecular target: T4, cynomolgus monkey FcγRIIa3 …; assay: SPR (BIACORE), antibody captured, FcgR analyte

| Binder | KD fold (SG1 = 1) [1] [fold] | KD fold (SG1 = 1) [2] [fold] | KD fold (SG1 = 1) [3] [fold] | KD fold (SG1 = 1) [4] [fold] | KD fold (SG1 = 1) [5] [fold] | KD fold (SG1 = 1) [6] [fold] | KD fold (SG1 = 1) [7] [fold] | KD fold (SG1 = 1) [8] [fold] | Kd [9] [µM] |
| --- | --- | --- | --- | --- | --- | --- | --- | --- | --- |
| M103205H795-MY209/M103202L889-SK1 (antibody, human IgG1, kappa, Substitutions introduced into M103205H795-SG1, expressed with M103202L889-SK1 as light chain; EU numbering) heavy: QVTLKESGPVLVKPTETLTLTCTVSGIDLSHDDISWVRQAPGKGLEWVGIISYAGSTYYASWAKGRLTISKDTSKNQVVLTMTNMDPVDTATYYCARGVPAYSHGGDLWGQGTLVTVSSASTKGPSVFPLAPSSKSTSGGTAALGCLVKDYFPEPVTVSWNSGALTSGVHTFPAVLQSSGLYSLSSVVTVPSSSLGTQTYICNVNHKPSNTKVDKKVEPKSCDKTHTCPPCPAPELLNGPSVFLFPPKPKDTLMISRTPEVTCVVVDVSDEDPEVKFNWYVDGVEVHNAKTKPREELYNSTYRVVSVLTVLHQDWLNGKEYKCKVSNTALPKPIEKTISKAKGQPREPQVYTLPPSREEMTKNQVSLTCLVKGFYPSDIAVEWESNGQPENNYKTTPPVLDSDGSFFLYSKLTVDKSRWQQGNVFSCSVMHEALHNHYTQKSLSLSP light: DIVMTQSPATLSLSPGERATLSCTSSQSVYHANWLSWFQQKPGQPPKLLIYWASTLAYGVPSRFSGSGSGTDFTLTISSLQPEDAATYYCAGGYGGGRYAFGQGTKVEIKRTVAAPSVFIFPPSDEQLKSGTASVVCLLNNFYPREAKVQWKVDNALQSGNSQESVTEQDSKDSTYSLSSTLTLSKADYEKHKVYACEVTHQGLSSPVTKSFNRGEC | 7.4 | 0.06 | 9.5 | 0.16 | 8.9 | 5.1 | 9.2 | 1.3 | 1.9 |
| M103205H795-MY283/M103202L889-SK1 (antibody, human IgG1, kappa, Substitutions introduced into M103205H795-SG1, expressed with M103202L889-SK1 as light chain; EU numbering) heavy: QVTLKESGPVLVKPTETLTLTCTVSGIDLSHDDISWVRQAPGKGLEWVGIISYAGSTYYASWAKGRLTISKDTSKNQVVLTMTNMDPVDTATYYCARGVPAYSHGGDLWGQGTLVTVSSASTKGPSVFPLAPSSKSTSGGTAALGCLVKDYFPEPVTVSWNSGALTSGVHTFPAVLQSSGLYSLSSVVTVPSSSLGTQTYICNVNHKPSNTKVDKKVEPKSCDKTHTCPPCPAPELLTGPSVFLFPPKPKDTLMISRTPEVTCVVVDVSDEDPEVKFNWYVDGVEVHNAKTKPREELYNSTYRVVSVLTVLHQDWLNGKEYKCKVSNKALPKPIEKTISKAKGQPREPQVYTLPPSREEMTKNQVSLTCLVKGFYPSDIAVEWESNGQPENNYKTTPPVLDSDGSFFLYSKLTVDKSRWQQGNVFSCSVMHEALHNHYTQKSLSLSP light: DIVMTQSPATLSLSPGERATLSCTSSQSVYHANWLSWFQQKPGQPPKLLIYWASTLAYGVPSRFSGSGSGTDFTLTISSLQPEDAATYYCAGGYGGGRYAFGQGTKVEIKRTVAAPSVFIFPPSDEQLKSGTASVVCLLNNFYPREAKVQWKVDNALQSGNSQESVTEQDSKDSTYSLSSTLTLSKADYEKHKVYACEVTHQGLSSPVTKSFNRGEC | 3.2 | 0.14 | 4.3 | 0.16 | 3.5 | 2.3 | 2.6 | 1.1 | 4.4 |
| M103205H795-MY339/M103202L889-SK1 (antibody, human IgG1, kappa, Substitutions introduced into M103205H795-SG1, expressed with M103202L889-SK1 as light chain; EU numbering) heavy: QVTLKESGPVLVKPTETLTLTCTVSGIDLSHDDISWVRQAPGKGLEWVGIISYAGSTYYASWAKGRLTISKDTSKNQVVLTMTNMDPVDTATYYCARGVPAYSHGGDLWGQGTLVTVSSASTKGPSVFPLAPSSKSTSGGTAALGCLVKDYFPEPVTVSWNSGALTSGVHTFPAVLQSSGLYSLSSVVTVPSSSLGTQTYICNVNHKPSNTKVDKKVEPKSCDKTHTCPPCPAPELLLGPSVFLFPPKPKDTLMISRTPEVTCVVVDVSDEDPEVKFNWYVDGVEVHNAKTKPREEQYNSTYRVVSVLTVLHQDWLNGKEYKCKVSNTALPKPIEKTISKAKGQPREPQVYTLPPSREEMTKNQVSLTCLVKGFYPSDIAVEWESNGQPENNYKTTPKVLDSDGSFFLYSKLTVDKSRWQQGNVFSCSVMHEALHNHYTQKSLSLSP light: DIVMTQSPATLSLSPGERATLSCTSSQSVYHANWLSWFQQKPGQPPKLLIYWASTLAYGVPSRFSGSGSGTDFTLTISSLQPEDAATYYCAGGYGGGRYAFGQGTKVEIKRTVAAPSVFIFPPSDEQLKSGTASVVCLLNNFYPREAKVQWKVDNALQSGNSQESVTEQDSKDSTYSLSSTLTLSKADYEKHKVYACEVTHQGLSSPVTKSFNRGEC | 1.7 | 0.14 | 2.4 | 0.47 | 1.7 | 0.9 | 1.5 | 1.7 | 3.8 |
| M103205H795-MY340/M103202L889-SK1 (antibody, human IgG1, kappa, Substitutions introduced into M103205H795-SG1, expressed with M103202L889-SK1 as light chain; EU numbering) heavy: QVTLKESGPVLVKPTETLTLTCTVSGIDLSHDDISWVRQAPGKGLEWVGIISYAGSTYYASWAKGRLTISKDTSKNQVVLTMTNMDPVDTATYYCARGVPAYSHGGDLWGQGTLVTVSSASTKGPSVFPLAPSSKSTSGGTAALGCLVKDYFPEPVTVSWNSGALTSGVHTFPAVLQSSGLYSLSSVVTVPSSSLGTQTYICNVNHKPSNTKVDKKVEPKSCDKTHTCPPCPAPELLLGPSVFLFPPKPKDTLMISRTPEVTCVVVDVSDEDPEVKFNWYVDGVEVHNAKTKPREELYNSTYRVVSVLTVLHQDWLNGKEYKCKVSNKALPKPIEKTISKAKGQPREPQVYTLPPSREEMTKNQVSLTCLVKGFYPSDIAVEWESNGQPENNYKTTPKVLDSDGSFFLYSKLTVDKSRWQQGNVFSCSVMHEALHNHYTQKSLSLSP light: DIVMTQSPATLSLSPGERATLSCTSSQSVYHANWLSWFQQKPGQPPKLLIYWASTLAYGVPSRFSGSGSGTDFTLTISSLQPEDAATYYCAGGYGGGRYAFGQGTKVEIKRTVAAPSVFIFPPSDEQLKSGTASVVCLLNNFYPREAKVQWKVDNALQSGNSQESVTEQDSKDSTYSLSSTLTLSKADYEKHKVYACEVTHQGLSSPVTKSFNRGEC | 1 | 0.05 | 1.6 | 0.16 | 0.7 | 0.7 | 1.4 | 1.3 | 23 |
| M103205H795-MY341/M103202L889-SK1 (antibody, human IgG1, kappa, Substitutions introduced into M103205H795-SG1, expressed with M103202L889-SK1 as light chain; EU numbering) heavy: QVTLKESGPVLVKPTETLTLTCTVSGIDLSHDDISWVRQAPGKGLEWVGIISYAGSTYYASWAKGRLTISKDTSKNQVVLTMTNMDPVDTATYYCARGVPAYSHGGDLWGQGTLVTVSSASTKGPSVFPLAPSSKSTSGGTAALGCLVKDYFPEPVTVSWNSGALTSGVHTFPAVLQSSGLYSLSSVVTVPSSSLGTQTYICNVNHKPSNTKVDKKVEPKSCDKTHTCPPCPAPELLLGPSVFLFPPKPKDTLMISRTPEVTCVVVDVSDEDPEVKFNWYVDGVEVHNAKTKPREELYNSTYRVVSVLTVLHQDWLNGKEYKCKVSNTALPKPIEKTISKAKGQPREPQVYTLPPSREEMTKNQVSLTCLVKGFYPSDIAVEWESNGQPENNYKTTPKVLDSDGSFFLYSKLTVDKSRWQQGNVFSCSVMHEALHNHYTQKSLSLSP light: DIVMTQSPATLSLSPGERATLSCTSSQSVYHANWLSWFQQKPGQPPKLLIYWASTLAYGVPSRFSGSGSGTDFTLTISSLQPEDAATYYCAGGYGGGRYAFGQGTKVEIKRTVAAPSVFIFPPSDEQLKSGTASVVCLLNNFYPREAKVQWKVDNALQSGNSQESVTEQDSKDSTYSLSSTLTLSKADYEKHKVYACEVTHQGLSSPVTKSFNRGEC | 1.8 | 0.12 | 3 | 0.38 | 1.9 | 1.2 | 2.6 | 2.6 | 8.8 |
